This passage reports Kd results from PMC9170038, “Crowdsourced RNA design discovers diverse, reversible, efficient, self-contained molecular switches”.

Series [1] addresses T1, MS2 coat protein, dlFG mutant (Escherichia phage MS2, UniProt P03612, del68-81insG). Nature of the series: 4 mM Mg2+; theophylline 2 mM; RNA-MaP array; 100 mM Tris-HCl pH 7.5, 80 mM KCl, 4 mM MgCl2, 0.1 mg/mL BSA, 1 mM DTT, 0.01 mg/mL yeast tRNA, 0.01% Tween-20; protein 1.5 nM to 3 uM; 37 C (Table S3). As to conditions: chain copies: 2; label: tethered by stalled RNA polymerase.

The target of series [2] is T1, MS2 coat protein, dlFG mutant. Nature of the series: 4 mM Mg2+; miR-208a RNA 100 nM (AU…UUGU); RNA-MaP array; 100 mM Tris-HCl pH 7.5, 80 mM KCl, 4 mM MgCl2, 0.1 mg/mL BSA, 1 mM DTT, 0.01 mg/mL yeast tRNA, 0.01% Tween-20; protein 1.5 nM to 3 uM; 37 C (Table S3). Conditions: chain copies: 2; label: tethered by stalled RNA polymerase.

B1: Eterna 7618605 (Same State - Theophylline A) (ssRNA)
RNA: UGUAACAUGAGGAUCACCCAUGUGAGUGAUACCAGAUUAGUAUUAGUCCCUUGGCAGCACAUUGGGCGAGUGUAUAGUCUAUGCG
For the molecule B1, the Kd in series [1] was 109 nM. In other words, the sub-micromolar range.

B2: Eterna 12069 (Sensor v3, turn-off variant 1) (ssRNA)
RNA: UGUUGUUGUUUCCGUUCUUACAUGAGGAUCACCCAUGUUUCUUGUCGUGCUCGCGUUGCUCGUCAGACUACCUGUUG
As for B2, the Kd in series [2] is 111 nM.
